Reference: IntAct's records for PubMed 19234114

B1: Ferroportin (Mus musculus), Q9JHI9 (parent)
chain: MTKARDQTHQEGCCGSLANYLTSAKFLLYLGHSLSTWGDRMWHFAVSVFLVELYGNSLLLTAVYGLVVAGSVLVLGAIIGDWVDKNARLKVAQTSLVVQNVSVILCGIILMMVFLHKNELLTMYHGWVLTVCYILIITIANIANLASTATAITIQRDWIVVVAGENRSRLADMNATIRRIDQLTNILAPMAVGQIMTFGSPVIGCGFISGWNLVSMCVEYFLLWKVYQKTPALAVKAALKVEESELKQLTSPKDTEPKPLEGTHLMGEKDSNIRELECEQEPTCASQMAEPFRTFRDGWVSYYNQPVFLAGMGLAFLYMTVLGFDCITTGYAYTQGLSGSILSILMGASAITGIMGTVAFTWLRRKCGLVRTGLFSGLAQLSCLILCVISVFMPGSPLDLSVSPFEDIRSRFVNVEPVSPTTKIPETVFTTEMHMSNMSNVHEMSTKPIPIVSVSLLFAGVIAARIGLWSFDLTVTQLLQENVIESERGIINGVQNSMNYLLDLLHFIMVILAPNPEAFGLLVLISVSFVAMGHLMYFRFAQKTLGNQIFVCGPDEKEVTDENQPNTSVV

Variants of: B1
Details: with jak2_human JAK2, O60674
Sequence of jak2_human JAK2, O60674 (O60674 whole entry): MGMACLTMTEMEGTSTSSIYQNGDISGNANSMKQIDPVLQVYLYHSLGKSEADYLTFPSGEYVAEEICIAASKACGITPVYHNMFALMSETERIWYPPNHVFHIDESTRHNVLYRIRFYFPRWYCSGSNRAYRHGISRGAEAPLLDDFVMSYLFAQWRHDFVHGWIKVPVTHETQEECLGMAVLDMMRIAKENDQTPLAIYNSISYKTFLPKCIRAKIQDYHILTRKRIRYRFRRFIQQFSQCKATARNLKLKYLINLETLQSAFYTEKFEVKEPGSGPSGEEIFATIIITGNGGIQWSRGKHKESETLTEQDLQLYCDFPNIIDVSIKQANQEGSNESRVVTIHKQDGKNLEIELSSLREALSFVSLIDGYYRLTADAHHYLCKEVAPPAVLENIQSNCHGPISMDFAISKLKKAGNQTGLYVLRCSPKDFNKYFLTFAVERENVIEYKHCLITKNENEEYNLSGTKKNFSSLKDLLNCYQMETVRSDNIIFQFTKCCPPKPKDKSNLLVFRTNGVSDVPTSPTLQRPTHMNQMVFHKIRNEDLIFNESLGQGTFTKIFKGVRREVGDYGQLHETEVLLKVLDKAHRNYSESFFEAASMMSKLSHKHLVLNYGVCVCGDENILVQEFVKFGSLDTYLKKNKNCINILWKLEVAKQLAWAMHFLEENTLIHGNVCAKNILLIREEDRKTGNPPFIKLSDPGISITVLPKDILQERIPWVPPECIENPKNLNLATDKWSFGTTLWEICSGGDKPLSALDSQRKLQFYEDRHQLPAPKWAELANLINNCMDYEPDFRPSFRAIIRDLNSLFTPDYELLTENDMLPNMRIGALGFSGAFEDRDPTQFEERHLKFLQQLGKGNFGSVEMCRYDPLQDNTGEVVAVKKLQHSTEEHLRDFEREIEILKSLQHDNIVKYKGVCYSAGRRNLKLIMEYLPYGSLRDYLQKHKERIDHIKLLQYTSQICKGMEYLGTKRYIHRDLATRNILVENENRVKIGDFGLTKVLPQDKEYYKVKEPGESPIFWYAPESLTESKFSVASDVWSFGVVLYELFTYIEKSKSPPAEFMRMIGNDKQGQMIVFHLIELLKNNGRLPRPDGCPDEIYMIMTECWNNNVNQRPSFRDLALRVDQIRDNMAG

Variant | effect of a mutation on the interaction
C326Y | disrupting interaction
